Reference: PMC6877527, “Sugar-mediated regulation of a c-di-GMP phosphodiesterase in Vibrio cholerae” (Nature Communications, 2019)
pKd: −log10 of the molar value.

Assays:
[1] = target: T1, VC1710 (PdeS) (Vibrio cholerae, UniProt Q9KRD2); test: biochemical
T1 construct: gene VC_1710

[2] = target: GST-PdeS (V. cholerae); test: MST; NanoTemper Monolith NT.115pico; GST-PdeS labeled with NT-647 at 4.875 nM; unlabeled EIIA^Glc titrated in 1:1 serial dilutions from 21.9 uM; 25 mM HEPES-NaOH pH 7.6, 100 mM NaCl, 5 mM beta-mercaptoethanol, 0.5 mg/ml BSA, 0.05% Tween 20; 15% LED power, 30% MST power, 22 C

Compound	pKd [1]	pKd [2]
Nc1nc2c(ncn2[C@@H]2O[C@@H]3CO[P@](=O)(O)O[C@H]4[C@@H](O)[C@H](n5cnc6c(=O)[nH]c(N)nc65)O[C@@H]4CO[P@](=O)(O)O[C@H]3[C@H]2O)c(=O)[nH]1 [c-di-GMP]	~5.06	
hexahistidine-tagged EIIA^Glc, dephosphorylated form (natural protein)		6.94
hexahistidine-tagged EIIA^Glc, phosphorylated form (natural protein)		6.54
